# Patent US9822156B2, “Amyloid beta expression constructs and uses therefor” (Whitehead Institute for Biomedical Research, priority 2014, dated 2017)
# Key:
# [1] = system: 293T cells; assay: TOXILIGHT cytotoxicity assay in stable doxycycline-inducible poly-Aβ 293T cell lines; format: cell-based; conditions: 72-96 hours following doxycycline induction
# Text: Similar to the poly-Aβ (Aβ40 or Aβ42_1X/4X/6X/8X) expression constructs in yeast (see Example 1), a poly-Aβ toxicity model was developed in mammalian cells. Stable cell lines with chromosomally-integrated tetracycline (doxycycline)-inducible […] transgenes (Aβ42-4X, Aβ42-6X, Aβ40-4X, Aβ40-6X and Aβ42-Arctic-4X) linked to an N-terminal insulin signal peptide were generated (FIGS. 13A-13B). These expression constructs were generated using the pLix402 lentiviral plasmid (FIG. 12). The poly-Aβ constructs were individually transfected into 293T cells along with the lentiviral packaging plasmid psPAX and the viral envelope-expressing plasmid mMD2.G using LIPOFECTAMINE® 2000 (Invitrogen) transfection reagent to generate lentivirus containing the poly-Aβ transgene. The virus was harvested from the supernatant of transfected 293T cells 2 and 3 days post-transfection and subsequently purified and concentrated using the LENTI-X™ Maxi Purification kit (Clontech) according to the manufacturer's instructions.
# To generate stable cells harboring the expression transgene for the poly-Aβ constructs, 293T cells were infected using POLYBRENE® infection reagent (Sigma Aldrich), which is used to introduce retroviral vectors into mammalian cells. Infected cells were then selected using puromycin (2-10 μg/ml). Infected cells harboring the transgene survive this selection pressure whereas the control cells without the transgene die in 2-3 days. Aliquots of the selected cells were frozen in liquid nitrogen or maintained and propagated for further applications.
# Expression of Aβ peptide from these stable cell lines was measured in the culture supernatant 72-96 hours following doxycycline induction (FIG. 13D). Toxicity was measured 72-96 hours following doxycycline induction using a TOXILIGHT™ cytotoxicity assay (Lonza) as described in Example 2.
# [2] = system: Yeast cells; assay: Yeast growth spotting assay of Aβ expression constructs on glucose or galactose media; format: cell-based; conditions: galactose-induced expression from 2μ high-copy plasmid pAG425Gal
# Text: The Aβ sequence was codon optimized for expression in yeast. The Aβ expression construct consists of attB Gateway flanking regions at the 5′ and 3′ ends (nucleotides […] (SEQ ID NO:84) and […] (SEQ ID NO:85), respectively) for Gateway cloning of MatαPrepro-Aβ42 sequence. The entire construct was synthesized into pUC57-Kan plasmid and cloned into the Gateway entry vector pDONR221. These constructs were then transferred into the pAG425Galexpression vector by Gateway LR cloning (Alberti et al., “A suite of Gateway cloning vectors for high throughput genetic analysis in Saccharomyces cerevisiae,” Yeast 24:913 (2007)). The GAL1 promoter enables expression of Aβ fusion transgenes under galactose-inducible conditions. The vector has an ampicillin resistant gene for amplification of the vector in E. coli and leucine auxotrophic marker (LEU2) for selection of transformed yeast cells on media lacking leucine (FIG. 2).
# Yeast cells transformed with either an expression vector containing galactose-inducible green fluorescent protein (GFP) or a galactose-inducible expression plasmid encoding a yeast mating factor alpha signal sequence/human amyloid beta 1-42 (Aβ42) or 1-40 (Aβ40) or scrambled Aβ42 fusion polypeptide were grown on glucose or galactose containing synthetic media and growth was assessed. Transformed cells were selected in medium lacking leucine. Individual transformants were grown overnight in complete synthetic medium (CSM) lacking leucine with 2% raffinose as the carbon source. Cell concentrations (OD600) were adjusted in a 96-well plate to OD 0.5 or 1. Cells were then 5-fold serially diluted and spotted on SD media containing glucose (uninduced) and galactose (induced). Plates were incubated at 30° C. for 2 days (glucose) or 3 to 4 days (galactose).
# [3] = system: Rat embryonic cortical neurons; conditions: lentiviral infection, synapsin promoter, secretory pathway expression
# Text: Rat embryonic cortical neurons were used for expressing Aβ. For generating lentiviral constructs, an expression vector was used with the human synapsin 1 promoter upstream of the inserted insulin signal peptide-Aβ fusion polypeptide transgene (FIG. 9). The encoded fusion polypeptide is processed in the secretory pathway of the neuron, releasing Aβ in the extracellular milieu.
# The pLV-Aβ constructs along with the psPAX2 packaging vector and pMD2.G envelope vector were transfected in 293T cells using LIPOFECTAMINE® 2000 (Invitrogen) transfection reagent following the manufacture's instruction to generate lentivirus containing the Aβ transgene. The virus was purified using LENTI-X™ Maxi Purification Kit (Clontech) from the supernatant of the transfected 293T cells according to the protocol provided by the manufacturer. Viral titer were determined by using Lentivirus-Associated p24 ELISA Kit (Cell BioLabs).
# Rat embryonic cortices were dissected out of embryonic (E18) rat brains, and neurons were enriched in adherent monolayer culture. These cortical neurons were infected with lentiviral preparation harboring an Aβ transgene or a control gene (RFP in the same vector backbone). Infected cultures were harvested to quantify the amount of Aβ in the supernatant and cell lysate by Aβ-specific ELISA 21 days after infection (FIG. 10A). Corresponding cytotoxicity of the infected neurons was measured by quantifying ATP levels using […]™ assay for cell viability (Lonza).
# [4] = system: Rat cortical neurons; assay: Fluorescence microscopy of neuronal survival and morphology after lentiviral Aβ infection (GFP live imaging, Map2 staining); format: cell-based; conditions: for neuronal survival and morphology, GFP live neuron imaging: 21 days after initial infection, identical MOI; for neuronal survival and morphology, Map2 immunostaining: twenty-one days post-infection
# Experimental: Rat cortical neurons were infected with a doxycycline-inducible lentiviral GFP construct. Two days post-infection, the cells were infected again with neuron-specific (synapsin promoter) lentiviral Aβ constructs (i.e., Aβ40, Aβ42, and various mutations). The doubly-infected cells were treated with doxycycline 7 days post-infection to express GFP. After 21 days of the initial infection, live neurons were visualized using fluorescence microscopy to observe the effect of different Aβ variants on neuronal survival and morphology by visualizing neurons expressing GFP in presence of Aβ expressed from the transgenes.
# Similar observations were also made by immunohistochemical analysis of rat cortical neurons infected with neuron-specific (synapsin promoter) lentiviral Aβ constructs. Twenty-one days post-infection, the neurons were stained with a neuron-specific microtubule-associated protein 2 (Map2) primary antibody (rabbit polyclonal, Millipore) and ALEXA FLUOR® (red fluorophore conjugated) secondary antibody (goat anti-rabbit polyclonal, Life Technologies). Neuronal cells and morphology were visualized to observe the effect of different Aβ mutations using fluorescence microscopy.
molecule,measurement,setting,value
"Aβ40-4X: doxycycline-inducible construct, insulin signal peptide and four copies of Aβ40, SEQ ID NO:41","Aβ peptide-mediated cytotoxic effect (adenylate kinase release), rank order",[1],Aβ42-6X≧Aβ42-Arctic-4X≧Aβ42-4X≧AB40-6X≧Aβ40-4X
"Aβ42-6X: doxycycline-inducible construct, insulin signal peptide and six copies of Aβ42, SEQ ID NO:39","Aβ peptide-mediated cytotoxic effect (adenylate kinase release), rank order",[1],Aβ42-6X≧Aβ42-Arctic-4X≧Aβ42-4X≧AB40-6X≧Aβ40-4X
"AB40-6X: doxycycline-inducible construct, insulin signal peptide and six copies of Aβ40, SEQ ID NO:43","Aβ peptide-mediated cytotoxic effect (adenylate kinase release), rank order",[1],Aβ42-6X≧Aβ42-Arctic-4X≧Aβ42-4X≧AB40-6X≧Aβ40-4X
"Aβ42 (1X): yeast expression construct, mating factor alpha prepro sequence with one copy of Aβ42, SEQ ID NO:51",toxicity (inhibition of yeast cell growth) upon expression,[2],not toxic
"Aβ42_I31E: lentiviral construct, insulin signal peptide fused to Aβ42 I31E, SEQ ID NO:21",cytotoxicity (ATP levels),[3],less cytotoxic effects compared to either the wild-type human Aβ42 or the Arctic variation of human Aβ42
same,"neuronal survival and morphology, GFP live neuron imaging",[4],reduced cytotoxicity and no significant morphological distortions of the neurons and neurites
same,"neuronal survival and morphology, Map2 immunostaining",[4],reduced cytotoxicity and had no significant effects on the neuronal morphology
"Arctic: yeast construct, four copies of Aβ42 E22G, SEQ ID NO:75 (protein) MRFPSIFTAVLFAASSALAAPVNTTTEDETAQIPAEAVIGYLDLEGDFDVAVLPFSNSTNNGLLFINTTIASIAAKEEGVSLDKREAEADAEFRHDSGYEVHHQKLVFFAGDVGSNKGAIIGLMVGGVVIAKREAEAEADAEFRHDSGYEVHHQKLVFFAGDVGSNKGAIIGLMVGGVVIAKREADAEADAEFRHDSGYEVHHQKLVFFAGDVGSNKGAIIGLMVGGVVIAKREADAEADAEFRHDSGYEVHHQKLVFFAGDVGSNKGAIIGLMVGGVVIA",toxicity (inhibition of yeast cell growth) upon expression,[2],profound toxicity
"Arctic_I31E: yeast construct, four copies of Aβ42 E22G/I31E, SEQ ID NO:77 (protein) MRFPSIFTAVLFAASSALAAPVNTTTEDETAQIPAEAVIGYLDLEGDFDVAVLPFSNSTNNGLLFINTTIASIAAKEEGVSLDKREAEADAEFRHDSGYEVHHQKLVFFAGDVGSNKGAEIGLMVGGVVIAKREAEAEADAEFRHDSGYEVHHQKLVFFAGDVGSNKGAEIGLMVGGVVIAKREADAEADAEFRHDSGYEVHHQKLVFFAGDVGSNKGAEIGLMVGGVVIAKREADAEADAEFRHDSGYEVHHQKLVFFAGDVGSNKGAEIGLMVGGVVIA",toxicity (inhibition of yeast cell growth) upon expression,[2],significantly lower amount of toxicity
"Dutch: yeast construct, four copies of Aβ42 E22Q, SEQ ID NO:71 (protein) MRFPSIFTAVLFAASSALAAPVNTTTEDETAQIPAEAVIGYLDLEGDFDVAVLPFSNSTNNGLLFINTTIASIAAKEEGVSLDKREAEADAEFRHDSGYEVHHQKLVFFAQDVGSNKGAIIGLMVGGVVIAKREAEAEADAEFRHDSGYEVHHQKLVFFAQDVGSNKGAIIGLMVGGVVIAKREADAEADAEFRHDSGYEVHHQKLVFFAQDVGSNKGAIIGLMVGGVVIAKREADAEADAEFRHDSGYEVHHQKLVFFAQDVGSNKGAIIGLMVGGVVIA",toxicity (inhibition of yeast cell growth) upon expression,[2],profound toxicity
"Aβ42_Arctic (E22G): lentiviral construct, insulin signal peptide fused to Aβ42 E22G, SEQ ID NO:17 (protein) MALWMRLLPLLALLALWGPDPAAADAEFRHDSGYEVHHQKLVFFAGDVGSNKGAIIGLMVGGVVIA",cytotoxicity (ATP levels),[3],more toxic effect compared to the wild-type human Aβ42
same,"neuronal survival and morphology, GFP live neuron imaging",[4],caused neuronal death and adversely affected neurite outgrowth and structures
same,"neuronal survival and morphology, Map2 immunostaining",[4],"profound cytotoxicity, resulting in massive neuronal loss and distorted neurite structures and outgrowth"
"Aβ42_Arc/I31E: lentiviral construct, insulin signal peptide fused to Aβ42 E22G/I31E, SEQ ID NO:23 (protein) MALWMRLLPLLALLALWGPDPAAADAEFRHDSGYEVHHQKLVFFAGDVGSNKGAEIGLMVGGVVIA",cytotoxicity (ATP levels),[3],less cytotoxic effects compared to either the wild-type human Aβ42 or the Arctic variation of human Aβ42
same,"neuronal survival and morphology, GFP live neuron imaging",[4],reduced cytotoxicity and no significant morphological distortions of the neurons and neurites
same,"neuronal survival and morphology, Map2 immunostaining",[4],reduced cytotoxicity and had no significant effects on the neuronal morphology
"E22_deletion: yeast construct, four copies of Aβ42 with E22 deleted, SEQ ID NO:79 (protein) MRFPSIFTAVLFAASSALAAPVNTTTEDETAQIPAEAVIGYLDLEGDFDVAVLPFSNSTNNGLLFINTTIASIAAKEEGVSLDKREAEADAEFRHDSGYEVHHQKLVFFADVGSNKGAIIGLMVGGVVIAKREAEAEADAEFRHDSGYEVHHQKLVFFADVGSNKGAIIGLMVGGVVIAKREADAEADAEFRHDSGYEVHHQKLVFFADVGSNKGAIIGLMVGGVVIAKREADAEADAEFRHDSGYEVHHQKLVFFADVGSNKGAIIGLMVGGVVIA",toxicity (inhibition of yeast cell growth) upon expression,[2],profound toxicity
